B1: SPSB1 (parent)
chain: DMRDPTYRPLKQELQGLDYCKPTR

Variants of: B1
Test: protein stability index of a GFP-peptide fusion (GPS, HEK-293T) (PSI 1-6); higher = more stable
Conditions: c terminus: a fixed tail appended
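Also: lentivirally expressed fusions sorted by FACS into six bins by GFP to DsRed ratio, PSI derived from sequencing read proportions per bin multiplied by bin number.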

**Q.** With R24K as the variant, how does the protein stability index read?
**A.** 3.09

**Q.** With T23W as the variant, how does the protein stability index read?
**A.** 1.76

**Q.** With Q15R as the variant, how does the protein stability index read?
**A.** 3.54

**Q.** With Y7Q as the variant, how does the protein stability index read?
**A.** 4.24

**Q.** With Y7L as the variant, how does the protein stability index read?
**A.** 3.25

**Q.** Which protein stability index does the source give for Y7V here?
**A.** 3.5

**Q.** For P5R, which protein stability index is on record?
**A.** 2.71

**Q.** With P5H as the variant, how does the protein stability index read?
**A.** 3.88

**Q.** For P5Y, which protein stability index is on record?
**A.** 2.93

**Q.** For P5F, which protein stability index is on record?
**A.** 3

**Q.** For P5Q, which protein stability index is on record?
**A.** 3.55

**Q.** For T6F, which protein stability index is on record?
**A.** 3.24

**Q.** Which protein stability index does the source give for R8C here?
**A.** 2.79

**Q.** For R8E, which protein stability index is on record?
**A.** 3.55

**Q.** Which protein stability index does the source give for Q12G here?
**A.** 2.48

**Q.** With Q12D as the variant, how does the protein stability index read?
**A.** 3.45

**Q.** Which protein stability index does the source give for L10T here?
**A.** 3.74

**Q.** Which protein stability index does the source give for L10G here?
**A.** 3.49

**Q.** Which protein stability index does the source give for P9I here?
**A.** 3.32

**Q.** For P9D, which protein stability index is on record?
**A.** 3.28

**Q.** With M2T as the variant, how does the protein stability index read?
**A.** 2.64

**Q.** With R3Q as the variant, how does the protein stability index read?
**A.** 3.45

**Q.** For R3Y, which protein stability index is on record?
**A.** 2.8

**Q.** Which protein stability index does the source give for L17T here?
**A.** 4.29

**Q.** Which protein stability index does the source give for Y19S here?
**A.** 4.35

**Q.** With Y19L as the variant, how does the protein stability index read?
**A.** 4.37

**Q.** Which protein stability index does the source give for Y19P here?
**A.** 4.56

**Q.** Which protein stability index does the source give for K11C here?
**A.** 2.48

**Q.** Which protein stability index does the source give for C20Y here?
**A.** 3.58

**Q.** For D18I, which protein stability index is on record?
**A.** 2.89

**Q.** Which protein stability index does the source give for D18V here?
**A.** 3.58

**Q.** For P22T, which protein stability index is on record?
**A.** 3.07

**Q.** With E13W as the variant, how does the protein stability index read?
**A.** 2.44

— the supplement of paper PMC10567573
